Results on five variants are retold here after IntAct's records for PubMed 10433268.

The labels stand for the following.
B1: Disks large-associated protein 1 (Rattus norvegicus (Rat)), P97836-5 (parent)
chain: MIDLFKAEWVSSVCVQVSRNGRTDQVWVPQDEWTGYTPRGKDDEIPCRRMRSGSYIKAMGDEDSGDSDTSPKPSPKVAARRESYLKATQPSLTELTTLKISNEHSPKLQIRSHSYLRAVSEVSINRSLDSLDPAGLLTSPKFRSRNESYMRAMSTISQVSEMEVNGQFESVCESVFSELESQAVEALDLPMPGCFRMRSHSYVRAIEKGCSQDDECVSLRSSSPPRTTTTVRTIQSSTGVIKLSSAVEAQSSTESAQDAYMDGQGQRGDMISQSGLSNSTESLDSMKALTAAIEAANAQIHGPASQHMGSNAAAVTTTTTIATVTTEDRKKDFKKNRCLSIGIQVDDAEESEKMAESKTSSKFQSVGVQVEEEKCFRRFTRSNSVTTAVQADLDFHDNLENSLESIEDNSCPGPMARQFSRDASTSTVSIQGSGNHYHACAADDDFDTDFDPSILPPPDPWIDSITEDPLEAVQRSVCHRDGHWFLKLLQAERDRMEGWCKQMEREERENNLPEDILGKIRTAVGSAQLLMAQKFYQFRELCEENLNPNAHPRPTSQDLAGFWDMLQLSIENISMKFDELHQLKANNWKQMDPLDKKERRAPPPVPKKPAKGPAPLIRERSLESSQRQEARKRLMAAKRAASVRQNSATESAESIEIYIPEAQTRL

Variants of B1 are the subject of the experiment. To be noted: with Shank1, Q9WV48-4.
Sequence of Shank1, Q9WV48-4 (Q9WV48 other isoform, or with tags, fused parts or gaps): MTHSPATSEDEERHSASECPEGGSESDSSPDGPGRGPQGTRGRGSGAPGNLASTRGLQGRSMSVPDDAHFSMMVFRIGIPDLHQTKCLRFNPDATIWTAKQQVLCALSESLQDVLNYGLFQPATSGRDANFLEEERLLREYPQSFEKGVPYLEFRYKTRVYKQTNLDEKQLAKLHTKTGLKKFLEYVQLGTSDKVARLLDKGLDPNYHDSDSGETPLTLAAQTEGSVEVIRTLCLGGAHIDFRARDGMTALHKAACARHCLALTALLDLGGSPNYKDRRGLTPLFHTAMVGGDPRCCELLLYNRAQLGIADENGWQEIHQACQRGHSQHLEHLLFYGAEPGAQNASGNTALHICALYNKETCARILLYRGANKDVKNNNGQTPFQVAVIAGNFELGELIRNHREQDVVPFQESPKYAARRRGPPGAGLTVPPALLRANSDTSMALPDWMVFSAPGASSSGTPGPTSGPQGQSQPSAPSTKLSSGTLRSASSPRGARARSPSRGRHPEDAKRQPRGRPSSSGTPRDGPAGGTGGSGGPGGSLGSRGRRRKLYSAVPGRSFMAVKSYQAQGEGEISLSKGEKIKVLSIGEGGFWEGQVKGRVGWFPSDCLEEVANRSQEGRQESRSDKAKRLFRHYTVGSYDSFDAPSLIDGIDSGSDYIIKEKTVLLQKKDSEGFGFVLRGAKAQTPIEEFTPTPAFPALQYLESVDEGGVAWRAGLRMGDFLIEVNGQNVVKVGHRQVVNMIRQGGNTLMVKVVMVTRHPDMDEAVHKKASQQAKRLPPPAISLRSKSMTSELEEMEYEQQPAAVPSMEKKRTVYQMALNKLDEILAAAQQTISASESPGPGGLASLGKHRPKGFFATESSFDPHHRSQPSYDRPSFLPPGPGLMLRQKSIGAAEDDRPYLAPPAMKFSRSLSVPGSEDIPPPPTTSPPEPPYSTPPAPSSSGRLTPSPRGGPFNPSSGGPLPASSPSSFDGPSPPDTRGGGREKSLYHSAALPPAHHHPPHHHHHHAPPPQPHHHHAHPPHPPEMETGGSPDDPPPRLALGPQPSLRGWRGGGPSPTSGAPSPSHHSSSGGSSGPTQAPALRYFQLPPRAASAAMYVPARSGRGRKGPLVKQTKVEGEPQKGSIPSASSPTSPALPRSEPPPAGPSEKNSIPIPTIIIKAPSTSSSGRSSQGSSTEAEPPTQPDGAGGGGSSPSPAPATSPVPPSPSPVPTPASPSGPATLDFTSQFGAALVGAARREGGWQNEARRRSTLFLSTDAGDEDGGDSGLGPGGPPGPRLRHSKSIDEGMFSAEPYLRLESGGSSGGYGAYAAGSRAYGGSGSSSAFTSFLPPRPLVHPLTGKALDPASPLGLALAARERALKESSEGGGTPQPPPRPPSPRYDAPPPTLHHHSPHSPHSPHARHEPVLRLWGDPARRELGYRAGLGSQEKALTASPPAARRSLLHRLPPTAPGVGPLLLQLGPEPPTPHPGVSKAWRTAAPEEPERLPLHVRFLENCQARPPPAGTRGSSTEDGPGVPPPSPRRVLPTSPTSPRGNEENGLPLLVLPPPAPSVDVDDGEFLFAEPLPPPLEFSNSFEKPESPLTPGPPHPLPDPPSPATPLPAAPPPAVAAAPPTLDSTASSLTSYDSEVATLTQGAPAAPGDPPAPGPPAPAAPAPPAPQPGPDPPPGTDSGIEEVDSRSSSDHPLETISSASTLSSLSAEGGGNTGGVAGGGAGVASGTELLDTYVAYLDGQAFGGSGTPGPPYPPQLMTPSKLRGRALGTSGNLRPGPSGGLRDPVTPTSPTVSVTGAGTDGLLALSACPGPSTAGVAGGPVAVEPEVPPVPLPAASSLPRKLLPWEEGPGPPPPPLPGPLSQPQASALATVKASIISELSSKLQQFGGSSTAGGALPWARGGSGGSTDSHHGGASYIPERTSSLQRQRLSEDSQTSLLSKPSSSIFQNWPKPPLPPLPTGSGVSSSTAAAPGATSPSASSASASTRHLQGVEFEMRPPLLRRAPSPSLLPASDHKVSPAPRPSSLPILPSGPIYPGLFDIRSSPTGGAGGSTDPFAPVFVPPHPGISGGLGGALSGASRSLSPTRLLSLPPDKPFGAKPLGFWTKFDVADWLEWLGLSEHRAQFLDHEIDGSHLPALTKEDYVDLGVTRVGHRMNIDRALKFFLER
For R665D, the “effect of a mutation on the interaction” value was “decreasing interaction”.
As for T664S, the entry is “decreasing interaction”; as for T664A, “disrupting interaction”.
For the variant L666V, the “effect of a mutation on the interaction” value is recorded as “decreasing interaction”.
As for L666A, the entry is “disrupting interaction”.
